“And” between values parts separate entries of the source, which are not always exact repeats. Identical values can stand only once.
How the values were obtained:
VEGF165 [1] = target: VEGF165 (UniProt P15692); experiment: VEGF binding assay; after 56 days incubation at 45 C
VEGF165 [2] = target: VEGF165 (UniProt P15692); experiment: competitive VEGF ELISA; panel B
VEGF165 [3] = target: VEGF165 (UniProt P15692); experiment: competitive VEGF ELISA; panel A
VEGF165 [4] = target: VEGF165 (UniProt P15692); experiment: VEGF binding assay
VEGF165 [5] = target: T1, VEGF165 (UniProt P15692 27-191); experiment: competitive VEGF ELISA; panel A
T1 chain: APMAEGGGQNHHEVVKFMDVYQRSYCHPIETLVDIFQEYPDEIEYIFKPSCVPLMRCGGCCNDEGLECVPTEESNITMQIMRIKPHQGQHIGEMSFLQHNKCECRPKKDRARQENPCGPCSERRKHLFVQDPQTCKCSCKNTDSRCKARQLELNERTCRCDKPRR

VEGF165 [6] = target: T1, VEGF165; experiment: competitive VEGF ELISA
VEGF165 [7] = target: T1, VEGF165; experiment: Biacore; 4000RU VEGF
VEGF165 [8] = target: T1, VEGF165; experiment: VEGF binding assay
VEGF165 [9] = target: T1, VEGF165; experiment: Biacore; 100RU VEGF
VEGF165 [10] = target: T1, VEGF165; experiment: competitive VEGF ELISA; panel B
VEGF165 [11] = target: T1, VEGF165; experiment: Biacore; 500RU VEGF
VEGF165 [12] = target: T2, VEGF165 (UniProt P15692-4 27-191); experiment: competitive VEGF ELISA (VEGF binding assay)
T2 construct: also called recombinant VEGF (R&D Systems); immobilized VEGF
Procedure: (§1) Dimers wherein two D2 domains of sFLT are coupled via PEG linkers were prepared by reaction of the partially-reduced monomer with homobifunctional PEGs. Products were isolated by SEC (FIG. 5) and analyzed for VEGF binding affinity using competitive ELISA (FIG. 9). VEGF165 binding of three SEC purified D2 domain constructs including dimers prepared with 0.6, 2 and 5 kDa linkers and as well as the 10 and 20 kDa 4-arm PEG conjugates as described in Example 1 was determined. The assay was performed by binding to 10 pM recombinant VEGF (R&D Systems) in phosphate-buffered saline. The sample concentrations ranged from 0.0763 to 156 pM. Following binding, the free VEGF concentration was determined by a VEGF-specific ELISA (R&D Systems). […] D2 monomer purified directly from medium (“D2 HPC4 eluate Pk C”) had no detectable binding to VEGF165.

VEGF165 [13] = target: T2, VEGF165; experiment: competitive VEGF ELISA
Procedure: Dimer was prepared using 100 uM CuCl₂ and the products assayed for VEGF binding activity by competitive VEGF ELISA. […] This value was similar to that obtained for dimers obtained without copper oxidation (FIG. 5). This molecule lacks the hinge region and Fc domain of sFLT01 and represents a minimal high affinity VEGF binding entity. Its low MW may provide advantages in localized delivery, including higher diffusion through tissue, more rapid systemic clearance thus reducing potential side effects of VEGF antagonism, and greater stability upon formulation into slow-release depots.
Dimers wherein two D2 domains of sFLT are coupled via PEG linkers were prepared by reaction of the partially-reduced monomer with homobifunctional PEGs. Products were isolated by SEC (FIG. 5) and analyzed for VEGF binding affinity using competitive ELISA (FIG. 9). VEGF165 binding of three SEC purified D2 domain constructs including dimers prepared with 0.6, 2 and 5 kDa linkers and as well as the 10 and 20 kDa 4-arm PEG conjugates as described in Example 1 was determined. The assay was performed by binding to 10 pM recombinant VEGF (R&D Systems) in phosphate-buffered saline. The sample concentrations ranged from 0.0763 to 156 pM. Following binding, the free VEGF concentration was determined by a VEGF-specific ELISA (R&D Systems). […]

VEGF165 [14] = target: T2, VEGF165; experiment: competitive VEGF ELISA: binding to 10 pM recombinant VEGF, free VEGF measured by ELISA
Procedure: as §1

VEGF165 [15] = target: T2, VEGF165; experiment: Biacore

## disulfide-linked D2 dimer (D2 domain with HPC4 tag and C-terminal cysteine) (from UniProt P17948 133-226)
VEGF165 [1]
  EC50: 0.0109 nM
VEGF165 [2]
  EC50: 0.0119 nM
VEGF165 [3]
  EC50: 7.08 pM
VEGF165 [4]
  EC50: 4.8 pM

## D2-Cys protein (D2 domain of FLT-1 with HPC4 tag and C-terminal cysteine), monomer (from UniProt P17948 133-226)
VEGF165 [2]
  EC50: 0.172 nM and 0.254 nM

B1: sFLT01 (D2-9Gly-Fc) (Fc fusion)
chain: RPFVEMYSEIPEIIHMTEGRELVIPCRVTSPNITVTLKKFPLDTLIPDGKRIIWDSRKGFIISNATYKEIGLLTCEATVNGHLYKTNYLTHRQTGGGGGGGGG
VEGF165 [5]
  EC50: 4.7 pM
VEGF165 [6]
  EC50: 3.7 nM
VEGF165 [7]
  Kd: 0.8 nM
VEGF165 [8]
  EC50: 5.4 pM
VEGF165 [9]
  Kd: 2.5 nM
VEGF165 [10]
  EC50: 4.72 pM
VEGF165 [11]
  Kd: 0.61 nM

B2: Four-arm D2 tetramer linked with 4-arm PEG of 20 kDa (receptor)
chain: RPFVEMYSEIPEIIHMTEGRELVIPCRVTSPNITVTLKKFPLDTLIPDGKRIIWDSRKGFIISNATYKEIGLLTCEATVNGHLYKTNYLTHRQT
modifications: free cysteine coupled to a 4-arm 20 kDa maleimide PEG
VEGF165 [5]
  EC50: 4.78 pM
VEGF165 [7]
  Kd: 0.17 nM
VEGF165 [9]
  Kd: 1.5 nM
VEGF165 [11]
  Kd: 0.1 nM

B3: disulfide-linked D2 dimer (D2 domain with HPC4 tag and C-terminal cysteine) (receptor)
chain: B2 chain
modifications: disulfide-linked dimer, presumably via the C-terminal cysteine
notes: Two preparations are kept under one id; One formed spontaneously and was SEC-purified from PEGylation reactions or conditioned medium, without copper oxidation ('D2 HPC4 eluate Pk B', 'D2 Pk B'); also called Cu-oxidized dimer; D2 HPC4 eluate Pk B
VEGF165 [6]
  EC50: 8.3 nM
VEGF165 [7]
  Kd: 11.4 nM
VEGF165 [9]
  Kd: 1.69 nM
VEGF165 [12]
  EC50: 8 to 10 pM
  fold higher EC50 than sFLT01: 2 fold
VEGF165 [11]
  Kd: 0.53 nM
VEGF165 [13]
  fold higher EC50 than sFLT01: 2.2 fold

B4: PEG-linked D2 dimer, 5 kDa linker (receptor)
chain: B2 chain
modifications: free cysteine of partially-reduced monomer coupled to a homobifunctional PEG linker of 5 kDa
VEGF165 [10]
  EC50: 6.75 pM

B5: Four-arm D2 tetramer linked with 4-arm PEG of 10 kDa (receptor)
chain: B2 chain
modifications: free cysteine coupled to a 4-arm 10 kDa PEG
VEGF165 [5]
  EC50: 3.74 pM
VEGF165 [7]
  Kd: 0.35 nM
VEGF165 [9]
  Kd: 0.84 nM
VEGF165 [11]
  Kd: 0.14 nM

B6: PEG-linked D2 dimer, 0.6 kDa linker (receptor)
chain: B2 chain
modifications: free cysteine of partially-reduced monomer coupled to a homobifunctional PEG linker of 0.6 kDa (BM(PEG)3)
VEGF165 [10]
  EC50: 4.71 pM

B7: D2-Cys protein (D2 domain of FLT-1 with HPC4 tag and C-terminal cysteine), monomer (receptor)
chain: B2 chain
notes: Expressed in HEK293-EBNA cells and purified on an HPC4 antibody column; glycosylated; also called D2 monomer; TCEP-reduced D2 monomer
VEGF165 [6]
  EC50: 131 nM
VEGF165 [7]
  Kd: 28.9 nM
VEGF165 [14]
  percent of the binding affinity of sFLT01: < 3%
VEGF165 [9]
  Kd: 9.61 nM
VEGF165 [15]
  Kd: ~10 nM
VEGF165 [11]
  Kd: 11.5 nM
VEGF165 [13]
  fold higher EC50 than sFLT01: ~35 fold

B8: PEG-linked D2 dimer, 2 kDa linker (receptor)
chain: B2 chain
modifications: free cysteine of partially-reduced monomer coupled to a homobifunctional PEG linker of 2 kDa
VEGF165 [5]
  EC50: 5.79 pM
